Data on nine molecules can be found in US20200317768A1 (published 2020).

Holding throughout (assay): SPR; KD of SG1 / KD of variant
(SPR reads the build-up and loss of mass on a sensor chip optically.)

For test [1], the target named is T1, cynomolgus monkey FcγRIIb extracellular domain, His-tagged (cynomolgus monkey).
T1 construct: also called cyno FcγRIIb; cynoFcγRIIb
T1 chain: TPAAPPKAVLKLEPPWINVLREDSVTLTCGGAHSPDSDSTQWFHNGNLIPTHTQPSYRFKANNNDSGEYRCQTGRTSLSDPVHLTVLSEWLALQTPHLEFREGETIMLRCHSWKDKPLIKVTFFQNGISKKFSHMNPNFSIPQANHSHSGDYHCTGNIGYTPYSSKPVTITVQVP

Test [2] has as its target T2, human FcγRIIIaV extracellular domain, His-tagged (human, UniProt P08637 17-208).
T2 construct: also called FcgRIIIaV

Test [3] addresses T3, human FcγRIIaH extracellular domain, His-tagged (human, UniProt P12318 34-217).
T3 construct: also called human FcγRIIa (type H); FcgRIIaH
T3 sequence: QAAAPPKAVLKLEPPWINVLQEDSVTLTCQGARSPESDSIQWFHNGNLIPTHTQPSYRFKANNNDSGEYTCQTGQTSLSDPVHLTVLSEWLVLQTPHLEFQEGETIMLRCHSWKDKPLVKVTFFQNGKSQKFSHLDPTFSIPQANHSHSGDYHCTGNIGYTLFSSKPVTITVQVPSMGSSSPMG

In test [4] the target is T4, human FcγRIIaR extracellular domain, His-tagged (human, UniProt P12318 34-217).
T4 construct: also called human FcγRIIa (type R); FcgRIIaR
T4 chain: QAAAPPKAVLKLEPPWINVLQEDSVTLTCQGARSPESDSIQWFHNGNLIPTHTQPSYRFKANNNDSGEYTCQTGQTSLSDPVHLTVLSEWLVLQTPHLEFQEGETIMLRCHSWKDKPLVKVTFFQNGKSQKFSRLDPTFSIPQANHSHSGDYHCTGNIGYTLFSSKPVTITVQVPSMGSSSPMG

In test [5] the target is T5, cynomolgus monkey FcγRIIa3 extracellular domain, His-tagged (cynomolgus monkey).
T5 construct: also called cyno FcγRIIa3; cynoFcgRIIa3
T5 chain: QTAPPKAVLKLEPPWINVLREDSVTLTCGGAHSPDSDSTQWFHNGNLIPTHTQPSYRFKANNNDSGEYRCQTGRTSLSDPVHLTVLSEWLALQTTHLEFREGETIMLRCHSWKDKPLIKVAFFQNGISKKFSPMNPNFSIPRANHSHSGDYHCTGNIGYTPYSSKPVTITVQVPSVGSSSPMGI

Test [6] concerns the target T6, cynomolgus monkey FcγRIIa2 extracellular domain, His-tagged (cynomolgus monkey).
T6 construct: also called cyno FcγRIIa2; cynoFcgRIIa2
T6 chain: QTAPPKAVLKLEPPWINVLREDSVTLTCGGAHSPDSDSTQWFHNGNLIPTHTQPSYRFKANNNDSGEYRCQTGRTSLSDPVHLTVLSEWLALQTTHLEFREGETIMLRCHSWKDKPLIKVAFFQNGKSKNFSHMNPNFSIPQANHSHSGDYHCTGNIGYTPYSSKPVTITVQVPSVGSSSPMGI

Test [7] deals with T7, cynomolgus monkey FcγRIIa1 extracellular domain, His-tagged (cynomolgus monkey).
T7 construct: also called cyno FcγRIIa1; cynoFcgRIIa1
T7 chain: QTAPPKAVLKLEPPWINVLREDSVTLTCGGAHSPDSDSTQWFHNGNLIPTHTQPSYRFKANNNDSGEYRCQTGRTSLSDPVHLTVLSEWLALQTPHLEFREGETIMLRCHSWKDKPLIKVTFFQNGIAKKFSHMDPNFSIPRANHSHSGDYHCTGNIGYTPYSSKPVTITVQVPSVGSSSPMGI

In test [8] the target is T8, human FcγRIIb extracellular domain, His-tagged (human, UniProt P31994 43-217).
T8 construct: also called FcgRIIb (human)
T8 sequence: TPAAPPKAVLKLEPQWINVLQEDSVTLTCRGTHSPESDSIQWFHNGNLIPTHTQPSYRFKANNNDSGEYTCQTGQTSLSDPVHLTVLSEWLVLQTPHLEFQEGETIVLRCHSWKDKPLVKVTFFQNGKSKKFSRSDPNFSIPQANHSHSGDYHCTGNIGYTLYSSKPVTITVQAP

T2 sequence (P08637 17-208 F176V): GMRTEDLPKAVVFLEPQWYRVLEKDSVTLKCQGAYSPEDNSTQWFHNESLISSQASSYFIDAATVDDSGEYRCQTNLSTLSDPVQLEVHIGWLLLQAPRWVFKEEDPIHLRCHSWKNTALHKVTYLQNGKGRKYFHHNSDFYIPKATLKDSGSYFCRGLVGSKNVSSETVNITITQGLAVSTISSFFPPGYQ

B1: MS_M103205H795-SG1/M103202L889-SK1 (antibody, human IgG1, kappa)
heavy: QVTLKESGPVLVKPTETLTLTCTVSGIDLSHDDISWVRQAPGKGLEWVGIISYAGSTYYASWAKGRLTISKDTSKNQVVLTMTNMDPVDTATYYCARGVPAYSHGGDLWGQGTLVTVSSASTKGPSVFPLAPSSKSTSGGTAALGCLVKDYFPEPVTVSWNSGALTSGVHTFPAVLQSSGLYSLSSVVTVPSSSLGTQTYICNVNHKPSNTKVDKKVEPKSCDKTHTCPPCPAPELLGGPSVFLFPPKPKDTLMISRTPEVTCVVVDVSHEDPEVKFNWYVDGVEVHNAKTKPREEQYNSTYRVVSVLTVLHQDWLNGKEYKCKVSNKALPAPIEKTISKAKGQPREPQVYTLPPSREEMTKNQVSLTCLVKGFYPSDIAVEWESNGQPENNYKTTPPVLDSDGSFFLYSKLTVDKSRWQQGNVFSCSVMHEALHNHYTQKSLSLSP
light: DIVMTQSPATLSLSPGERATLSCTSSQSVYHANWLSWFQQKPGQPPKLLIYWASTLAYGVPSRFSGSGSGTDFTLTISSLQPEDAATYYCAGGYGGGRYAFGQGTKVEIKRTVAAPSVFIFPPSDEQLKSGTASVVCLLNNFYPREAKVQWKVDNALQSGNSQESVTEQDSKDSTYSLSSTLTLSKADYEKHKVYACEVTHQGLSSPVTKSFNRGEC
notes: Parent antibody of the Fc variants; heavy chain constant region SG1, light chain M103202L889-SK1; also called MS1032LO06-SG1
Regarding B1, the “KD fold (SG1 = 1)” value in test [1], in test [2], in test [3], in test [4], in test [5] and in test [6] was 1 fold each time. The “KD fold (SG1 = 1)” value in test [7] and in test [8] was 1 fold throughout.

B2: M103205H795-MY006/M103202L889-SK1 (antibody, human IgG1, kappa)
heavy: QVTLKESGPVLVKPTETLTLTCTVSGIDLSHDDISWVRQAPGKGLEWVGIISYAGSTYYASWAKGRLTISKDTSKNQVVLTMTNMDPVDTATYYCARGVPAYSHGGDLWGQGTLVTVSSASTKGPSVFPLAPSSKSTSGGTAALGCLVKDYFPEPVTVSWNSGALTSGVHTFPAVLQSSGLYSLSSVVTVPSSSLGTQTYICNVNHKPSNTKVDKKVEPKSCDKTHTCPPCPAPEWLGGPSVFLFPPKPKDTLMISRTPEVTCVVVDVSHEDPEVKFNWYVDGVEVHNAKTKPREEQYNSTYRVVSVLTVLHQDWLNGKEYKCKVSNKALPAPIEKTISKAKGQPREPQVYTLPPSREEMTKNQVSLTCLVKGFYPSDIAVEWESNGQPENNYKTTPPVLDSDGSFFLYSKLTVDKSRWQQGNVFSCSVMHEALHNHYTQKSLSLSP
light: DIVMTQSPATLSLSPGERATLSCTSSQSVYHANWLSWFQQKPGQPPKLLIYWASTLAYGVPSRFSGSGSGTDFTLTISSLQPEDAATYYCAGGYGGGRYAFGQGTKVEIKRTVAAPSVFIFPPSDEQLKSGTASVVCLLNNFYPREAKVQWKVDNALQSGNSQESVTEQDSKDSTYSLSSTLTLSKADYEKHKVYACEVTHQGLSSPVTKSFNRGEC
notes: Substitution put into M103205H795-SG1
Turning to B2, the “KD fold (SG1 = 1)” value was found to be 2 fold in test [1]; 1.12 fold in test [2]; 0.5 fold in test [3]; 0.6 fold in test [4]; 4.7 fold in test [5]; 2.7 fold in test [6]. Besides, the “KD fold (SG1 = 1)” value in test [7] was 1.6 fold; in test [8], 2 fold.

B3: M103205H795-MY013/M103202L889-SK1 (antibody, human IgG1, kappa)
heavy: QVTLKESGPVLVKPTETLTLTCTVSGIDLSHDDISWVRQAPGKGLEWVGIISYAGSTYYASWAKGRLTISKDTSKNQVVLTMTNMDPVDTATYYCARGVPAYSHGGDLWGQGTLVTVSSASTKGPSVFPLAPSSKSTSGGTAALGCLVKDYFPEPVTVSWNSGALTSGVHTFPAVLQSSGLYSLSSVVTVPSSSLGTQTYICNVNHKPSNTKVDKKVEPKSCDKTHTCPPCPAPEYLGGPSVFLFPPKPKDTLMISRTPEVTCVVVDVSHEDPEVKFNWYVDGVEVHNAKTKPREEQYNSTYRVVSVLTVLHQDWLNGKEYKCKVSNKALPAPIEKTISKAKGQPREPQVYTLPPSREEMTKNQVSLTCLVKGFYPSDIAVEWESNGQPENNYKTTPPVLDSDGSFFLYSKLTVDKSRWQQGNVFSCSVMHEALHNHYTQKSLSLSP
light: DIVMTQSPATLSLSPGERATLSCTSSQSVYHANWLSWFQQKPGQPPKLLIYWASTLAYGVPSRFSGSGSGTDFTLTISSLQPEDAATYYCAGGYGGGRYAFGQGTKVEIKRTVAAPSVFIFPPSDEQLKSGTASVVCLLNNFYPREAKVQWKVDNALQSGNSQESVTEQDSKDSTYSLSSTLTLSKADYEKHKVYACEVTHQGLSSPVTKSFNRGEC
notes: as for B2
On to B3, for which the “KD fold (SG1 = 1)” value turned out to be 0.9 fold in test [1]; 1.98 fold in test [2]; 0.3 fold in test [3]; 0.2 fold in test [4]; 0.3 fold in test [5]; 1.1 fold in test [6]. Further, the “KD fold (SG1 = 1)” value in test [7] turned out to be 0.7 fold; in test [8] it was 1.2 fold.

B4: M103205H795-MY037/M103202L889-SK1 (antibody, human IgG1, kappa)
heavy: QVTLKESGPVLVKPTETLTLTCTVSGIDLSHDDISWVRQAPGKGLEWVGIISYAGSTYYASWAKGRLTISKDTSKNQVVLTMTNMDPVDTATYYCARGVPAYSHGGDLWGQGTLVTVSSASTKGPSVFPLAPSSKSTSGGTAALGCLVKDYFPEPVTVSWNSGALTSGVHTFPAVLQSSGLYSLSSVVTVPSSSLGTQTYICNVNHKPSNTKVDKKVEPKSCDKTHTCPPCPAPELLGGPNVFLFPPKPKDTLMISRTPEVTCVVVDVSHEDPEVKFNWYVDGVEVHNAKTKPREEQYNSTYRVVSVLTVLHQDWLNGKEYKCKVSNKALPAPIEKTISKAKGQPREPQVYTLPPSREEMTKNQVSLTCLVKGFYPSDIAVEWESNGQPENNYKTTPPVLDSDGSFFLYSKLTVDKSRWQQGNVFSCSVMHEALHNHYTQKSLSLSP
light: DIVMTQSPATLSLSPGERATLSCTSSQSVYHANWLSWFQQKPGQPPKLLIYWASTLAYGVPSRFSGSGSGTDFTLTISSLQPEDAATYYCAGGYGGGRYAFGQGTKVEIKRTVAAPSVFIFPPSDEQLKSGTASVVCLLNNFYPREAKVQWKVDNALQSGNSQESVTEQDSKDSTYSLSSTLTLSKADYEKHKVYACEVTHQGLSSPVTKSFNRGEC
notes: as for B2
As to B4, the “KD fold (SG1 = 1)” value in test [1] is 0.8 fold; in test [2], 2.15 fold; in test [3], 0.6 fold; in test [4] it was 1.2 fold; in test [5] it was 1.5 fold; in test [6], 1.1 fold. Besides, the “KD fold (SG1 = 1)” value in test [7] turned out to be 0.8 fold; in test [8] it was 1.8 fold.

B5: M103205H795-MY008/M103202L889-SK1 (antibody, human IgG1, kappa)
heavy: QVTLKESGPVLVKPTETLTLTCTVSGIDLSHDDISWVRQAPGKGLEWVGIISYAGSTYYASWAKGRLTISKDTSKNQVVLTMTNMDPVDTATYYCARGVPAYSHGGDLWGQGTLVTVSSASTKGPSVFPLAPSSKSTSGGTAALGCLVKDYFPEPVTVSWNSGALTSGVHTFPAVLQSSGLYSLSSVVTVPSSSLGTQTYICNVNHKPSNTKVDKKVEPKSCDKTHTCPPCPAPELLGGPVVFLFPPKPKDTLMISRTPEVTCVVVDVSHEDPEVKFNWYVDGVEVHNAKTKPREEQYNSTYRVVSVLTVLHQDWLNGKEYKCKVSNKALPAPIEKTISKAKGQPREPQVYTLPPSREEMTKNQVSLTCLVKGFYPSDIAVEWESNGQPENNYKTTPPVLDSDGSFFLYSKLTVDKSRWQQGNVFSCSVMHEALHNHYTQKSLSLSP
light: DIVMTQSPATLSLSPGERATLSCTSSQSVYHANWLSWFQQKPGQPPKLLIYWASTLAYGVPSRFSGSGSGTDFTLTISSLQPEDAATYYCAGGYGGGRYAFGQGTKVEIKRTVAAPSVFIFPPSDEQLKSGTASVVCLLNNFYPREAKVQWKVDNALQSGNSQESVTEQDSKDSTYSLSSTLTLSKADYEKHKVYACEVTHQGLSSPVTKSFNRGEC
notes: as for B2
B5: the “KD fold (SG1 = 1)” value in test [1] stood at 1.1 fold; in test [2], 1.29 fold; in test [3] it was 0.4 fold; in test [4], 0.6 fold; in test [5] it was 0.7 fold; in test [6], 1.4 fold. Also, the “KD fold (SG1 = 1)” value in test [7] came out at 0.8 fold; in test [8], 1.8 fold.

B6: M103205H795-MY016/M103202L889-SK1 (antibody, human IgG1, kappa)
heavy: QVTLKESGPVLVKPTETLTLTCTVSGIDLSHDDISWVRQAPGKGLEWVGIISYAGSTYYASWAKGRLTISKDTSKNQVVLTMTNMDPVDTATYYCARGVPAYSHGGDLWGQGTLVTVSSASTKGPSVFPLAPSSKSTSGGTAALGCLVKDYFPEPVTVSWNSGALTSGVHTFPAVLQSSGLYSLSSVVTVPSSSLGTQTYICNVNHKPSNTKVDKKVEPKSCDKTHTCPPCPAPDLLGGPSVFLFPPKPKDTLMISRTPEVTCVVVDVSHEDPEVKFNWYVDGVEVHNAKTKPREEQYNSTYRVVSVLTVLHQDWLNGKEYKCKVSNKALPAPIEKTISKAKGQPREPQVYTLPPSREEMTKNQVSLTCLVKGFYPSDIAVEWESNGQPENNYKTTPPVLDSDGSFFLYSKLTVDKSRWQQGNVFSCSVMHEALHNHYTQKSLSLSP
light: DIVMTQSPATLSLSPGERATLSCTSSQSVYHANWLSWFQQKPGQPPKLLIYWASTLAYGVPSRFSGSGSGTDFTLTISSLQPEDAATYYCAGGYGGGRYAFGQGTKVEIKRTVAAPSVFIFPPSDEQLKSGTASVVCLLNNFYPREAKVQWKVDNALQSGNSQESVTEQDSKDSTYSLSSTLTLSKADYEKHKVYACEVTHQGLSSPVTKSFNRGEC
notes: as for B2
For the molecule B6, the “KD fold (SG1 = 1)” value in test [1] turned out to be 1.1 fold; in test [2] it was 2.15 fold; in test [3], 0.8 fold; in test [4], 1.2 fold; in test [5] it was 5.3 fold; in test [6], 1.5 fold. The “KD fold (SG1 = 1)” value stood at 1.1 fold in test [7] and 1.6 fold in test [8].

B7: M103205H795-MY014/M103202L889-SK1 (antibody, human IgG1, kappa)
heavy: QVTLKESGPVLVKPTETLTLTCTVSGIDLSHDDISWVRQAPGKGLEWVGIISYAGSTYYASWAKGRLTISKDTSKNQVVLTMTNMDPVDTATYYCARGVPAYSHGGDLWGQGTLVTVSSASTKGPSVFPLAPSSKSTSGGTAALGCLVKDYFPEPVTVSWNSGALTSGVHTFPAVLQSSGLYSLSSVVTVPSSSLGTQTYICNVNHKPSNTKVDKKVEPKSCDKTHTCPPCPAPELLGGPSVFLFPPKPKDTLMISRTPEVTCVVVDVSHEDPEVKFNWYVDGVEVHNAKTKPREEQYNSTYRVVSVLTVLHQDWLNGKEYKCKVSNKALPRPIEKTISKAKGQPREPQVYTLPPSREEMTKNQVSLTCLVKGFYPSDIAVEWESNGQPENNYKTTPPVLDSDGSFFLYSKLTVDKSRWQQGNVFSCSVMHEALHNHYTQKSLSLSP
light: DIVMTQSPATLSLSPGERATLSCTSSQSVYHANWLSWFQQKPGQPPKLLIYWASTLAYGVPSRFSGSGSGTDFTLTISSLQPEDAATYYCAGGYGGGRYAFGQGTKVEIKRTVAAPSVFIFPPSDEQLKSGTASVVCLLNNFYPREAKVQWKVDNALQSGNSQESVTEQDSKDSTYSLSSTLTLSKADYEKHKVYACEVTHQGLSSPVTKSFNRGEC
notes: as for B2
Turning to B7, the “KD fold (SG1 = 1)” value in test [1] was 1.2 fold; in test [2], 1.17 fold; in test [3] it was 1.3 fold; in test [4], 1.1 fold; in test [5], 1.4 fold; in test [6], 2 fold. Further, the “KD fold (SG1 = 1)” value was found to be 1.3 fold in test [7] and 1 fold in test [8].

B8: M103205H795-MY010/M103202L889-SK1 (antibody, human IgG1, kappa)
heavy: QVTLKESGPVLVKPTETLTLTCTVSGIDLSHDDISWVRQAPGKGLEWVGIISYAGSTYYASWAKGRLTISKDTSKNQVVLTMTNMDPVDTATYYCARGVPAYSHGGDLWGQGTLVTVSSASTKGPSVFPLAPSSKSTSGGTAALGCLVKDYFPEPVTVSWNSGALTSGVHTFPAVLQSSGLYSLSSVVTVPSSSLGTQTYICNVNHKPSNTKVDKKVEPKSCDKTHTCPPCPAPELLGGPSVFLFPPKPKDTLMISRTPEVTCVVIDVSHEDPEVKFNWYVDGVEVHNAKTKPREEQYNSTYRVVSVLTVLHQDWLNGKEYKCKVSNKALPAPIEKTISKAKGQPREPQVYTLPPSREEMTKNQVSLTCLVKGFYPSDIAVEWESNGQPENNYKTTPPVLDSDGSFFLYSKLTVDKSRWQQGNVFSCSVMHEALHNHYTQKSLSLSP
light: DIVMTQSPATLSLSPGERATLSCTSSQSVYHANWLSWFQQKPGQPPKLLIYWASTLAYGVPSRFSGSGSGTDFTLTISSLQPEDAATYYCAGGYGGGRYAFGQGTKVEIKRTVAAPSVFIFPPSDEQLKSGTASVVCLLNNFYPREAKVQWKVDNALQSGNSQESVTEQDSKDSTYSLSSTLTLSKADYEKHKVYACEVTHQGLSSPVTKSFNRGEC
notes: as for B2
For B8, the “KD fold (SG1 = 1)” value in test [1] was 0.5 fold; in test [2], 3.68 fold; in test [3], 0.6 fold; in test [4] it was 0.6 fold; in test [5] it was 1.2 fold; in test [6] it was 1 fold. In addition, the “KD fold (SG1 = 1)” value in test [7] was determined as 0.5 fold; in test [8], 0.9 fold.

B9: M103205H795-MY038/M103202L889-SK1 (antibody, human IgG1, kappa)
heavy: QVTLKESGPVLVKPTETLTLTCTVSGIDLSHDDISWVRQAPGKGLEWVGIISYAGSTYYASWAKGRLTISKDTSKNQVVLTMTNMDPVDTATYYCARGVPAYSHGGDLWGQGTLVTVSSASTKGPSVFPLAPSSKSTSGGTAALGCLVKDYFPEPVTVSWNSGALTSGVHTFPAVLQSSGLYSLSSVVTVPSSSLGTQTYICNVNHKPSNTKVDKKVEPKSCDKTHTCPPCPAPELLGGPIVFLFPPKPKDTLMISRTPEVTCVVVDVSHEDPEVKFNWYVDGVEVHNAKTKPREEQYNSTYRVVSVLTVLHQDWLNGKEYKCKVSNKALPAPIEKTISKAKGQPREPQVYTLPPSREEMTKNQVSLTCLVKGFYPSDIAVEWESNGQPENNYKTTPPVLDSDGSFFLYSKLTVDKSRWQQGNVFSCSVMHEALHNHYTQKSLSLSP
light: DIVMTQSPATLSLSPGERATLSCTSSQSVYHANWLSWFQQKPGQPPKLLIYWASTLAYGVPSRFSGSGSGTDFTLTISSLQPEDAATYYCAGGYGGGRYAFGQGTKVEIKRTVAAPSVFIFPPSDEQLKSGTASVVCLLNNFYPREAKVQWKVDNALQSGNSQESVTEQDSKDSTYSLSSTLTLSKADYEKHKVYACEVTHQGLSSPVTKSFNRGEC
notes: as for B2
Take B9: the “KD fold (SG1 = 1)” value in test [1] is 0.9 fold; in test [2], 1.47 fold; in test [3], 0.6 fold; in test [4], 0.7 fold; in test [5], 1.5 fold; in test [6], 1.1 fold. Moreover, the “KD fold (SG1 = 1)” value came out at 0.8 fold in test [7] and 1.8 fold in test [8].
